Experimental data from US20040175758.

Tests used:
[1] = target: Bovine recombinant PrP (Prionics), P10279
[2] = target: T1, Q4, synthetic peptide Ac-EKTAGKPILF-OH
T1 chain: EKTAGKPILF

Chain of Bovine recombinant PrP (Prionics), P10279 (P10279 25-242): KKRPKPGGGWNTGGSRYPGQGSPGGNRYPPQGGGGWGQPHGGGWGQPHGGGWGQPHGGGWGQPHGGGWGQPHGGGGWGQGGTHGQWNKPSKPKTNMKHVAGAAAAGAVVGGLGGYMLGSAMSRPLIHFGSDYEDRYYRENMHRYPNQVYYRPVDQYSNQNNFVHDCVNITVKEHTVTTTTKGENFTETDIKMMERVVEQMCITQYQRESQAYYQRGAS

B1: Recombinant FLAG-tagged human GPBP (expressed in yeast, FLAG-affinity purified) (protein)
chain: MSDNQSWNSSGSEEDPETESGPPVERCGVLSKWTNYIHGWQDRWVVLKNNALSYYKSEDETEYGCRGSICLSKAVITPHDFDECRFDISVNDSVWYLRAQDPDHRQQWIDAIEQHKTESGYGSESSLRRHGSMVSLVSGASGYSATSTSSFKKGHSLREKLAEMETFRDILCRQVDTLQKYFDACADAVSKDELQRDKVVEDDEDDFPTTRSDGDFLHSTNGNKEKLFPHVTPKGINGIDFKGEAITFKATTAGILATLSHCIELMVKREDSWQKRLDKETEKKRRTEEAYKNAMTELKKKSHFGGPDYEEGPNSLINEEEFFDAVEAALDRQDKIEEQSQSEKVRLHWPTSLPSGDAFSSVGTHRFVQKPYSRSSSMSSIDLVSASDDVHRFSSQVEEMVQNHMTYSLQDVGGDANWQLVVEEGEMKVYRREVEENGIVLDPLKATHAVKGVTGHEVCNYFWNVDVRNDWETTIENFHVVETLADNAIIIYQTHKRVWPASQRDVLYLSVIRKIPALTENDPETWIVCNFSVDHDSAPLNNRCVRAKINVAMICQTLVSPPEGNQEISRDNILCKITYVANVNPGGWAPASVLRAVAKREYPKFLKRFTSYVQEKTAGKPILF
[1]
  in vitro phosphorylation with [γ^32P]-ATP, autoradiography: transferred phosphates to PrP
[2]
  GPBP autophosphorylation in vitro: inhibited GPBP autophosphorylation in a more limited manner
